Legend:
[1] = target: expanded form (EX) of the P22 virus-like particle (bacteriophage P22) (UniProt P26747); assay: SEC-MALS
[2] = target: expanded form (EX) of the P22 virus-like particle (bacteriophage P22) (UniProt P26747); assay: SPR
[3] = target: Dec truncated by the first 11 N-terminal residues (bacteriophage L); assay: SEC
[4] = target: Dec truncated by the first 20 N-terminal residues (bacteriophage L); assay: SEC
[5] = target: decoration protein (Dec) from bacteriophage L, wild type with N-terminal 6x histidine tag (bacteriophage L); assay: SEC

Dec fused at its C-terminus to the soluble region of murine CD40L (from UniProt P27548 112-260)
stoichiometry N (Dec monomers per particle) [1]: 51
KD1 (tight site, two-site fit) [2]: 30.8 nM
ka1 (tight site, two-site fit) [2]: 6440 M⁻¹ s⁻¹
kd1 (tight site, two-site fit) [2]: 0.0002 s⁻¹

Dec truncated by the first 11 N-terminal residues (domain or fragment)
stoichiometry N (Dec monomers per particle) [1]: 214
stoichiometry N [3]: 3

Dec truncated by the first 20 N-terminal residues (domain or fragment)
stoichiometry N [4]: 3

Dec fused at its C-terminus to the 21 amino acid CD47 mimic Self-peptide
stoichiometry N (Dec monomers per particle) [1]: 114
KD1 (tight site, two-site fit) [2]: 18.3 nM
ka1 (tight site, two-site fit) [2]: 11200 M⁻¹ s⁻¹

decoration protein (Dec) from bacteriophage L, wild type with N-terminal 6x histidine tag (natural protein)
stoichiometry N (Dec monomers per particle) [1]: 155
KD2 (weak site, two-site fit) [2]: 1500 nM
Kd [2]: 24 nM
half-life of binding at the tight site [2]: > 60 h
ka1 (tight site, two-site fit) [2]: 11500 M⁻¹ s⁻¹
ka2 (weak site, two-site fit) [2]: 1980 M⁻¹ s⁻¹
kd1 (tight site, two-site fit) [2]: 0.000106 s⁻¹
koff [2]: 0.00033 s⁻¹
kon [2]: 13800 M⁻¹ s⁻¹
stoichiometry N [5]: 3

Reference: PMC4863989
